Where a chain is given by its changes, count along the chain named.
T1: DDX1 (human, UniProt Q92499 1-740)
T1 construct: Endogenous protein that co-purifies from cell extract
T1 sequence (looked up): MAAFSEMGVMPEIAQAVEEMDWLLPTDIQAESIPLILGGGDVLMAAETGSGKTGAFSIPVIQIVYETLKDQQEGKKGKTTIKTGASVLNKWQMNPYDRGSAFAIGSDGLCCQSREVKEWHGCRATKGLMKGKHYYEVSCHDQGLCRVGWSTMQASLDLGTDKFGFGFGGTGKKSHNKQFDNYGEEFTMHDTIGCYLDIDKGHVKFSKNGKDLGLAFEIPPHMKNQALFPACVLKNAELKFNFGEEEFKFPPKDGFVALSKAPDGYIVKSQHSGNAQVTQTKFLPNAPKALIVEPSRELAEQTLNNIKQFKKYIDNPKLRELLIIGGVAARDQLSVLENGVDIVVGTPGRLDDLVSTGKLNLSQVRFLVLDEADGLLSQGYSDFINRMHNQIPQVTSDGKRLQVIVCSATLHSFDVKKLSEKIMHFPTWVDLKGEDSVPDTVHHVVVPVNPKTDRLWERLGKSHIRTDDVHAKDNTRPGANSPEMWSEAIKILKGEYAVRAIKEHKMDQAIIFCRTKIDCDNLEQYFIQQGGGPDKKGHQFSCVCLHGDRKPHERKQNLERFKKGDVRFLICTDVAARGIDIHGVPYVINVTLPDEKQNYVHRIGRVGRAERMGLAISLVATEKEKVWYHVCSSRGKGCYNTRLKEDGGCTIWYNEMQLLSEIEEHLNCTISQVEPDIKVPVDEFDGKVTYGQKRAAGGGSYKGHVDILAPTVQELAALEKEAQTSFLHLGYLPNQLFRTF

T2: ASW (human, UniProt Q9BVC5 1-232, limits assumed)
T2 construct: Endogenous protein that co-purifies from cell extract
T2 sequence (looked up): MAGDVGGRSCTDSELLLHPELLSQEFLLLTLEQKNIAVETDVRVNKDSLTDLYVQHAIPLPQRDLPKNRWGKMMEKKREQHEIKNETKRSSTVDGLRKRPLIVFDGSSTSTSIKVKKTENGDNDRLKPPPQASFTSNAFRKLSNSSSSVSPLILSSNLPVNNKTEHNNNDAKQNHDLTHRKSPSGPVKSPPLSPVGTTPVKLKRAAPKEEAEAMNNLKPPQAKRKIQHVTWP

T3: HSPC117, Q9Y3I0
T3 chain: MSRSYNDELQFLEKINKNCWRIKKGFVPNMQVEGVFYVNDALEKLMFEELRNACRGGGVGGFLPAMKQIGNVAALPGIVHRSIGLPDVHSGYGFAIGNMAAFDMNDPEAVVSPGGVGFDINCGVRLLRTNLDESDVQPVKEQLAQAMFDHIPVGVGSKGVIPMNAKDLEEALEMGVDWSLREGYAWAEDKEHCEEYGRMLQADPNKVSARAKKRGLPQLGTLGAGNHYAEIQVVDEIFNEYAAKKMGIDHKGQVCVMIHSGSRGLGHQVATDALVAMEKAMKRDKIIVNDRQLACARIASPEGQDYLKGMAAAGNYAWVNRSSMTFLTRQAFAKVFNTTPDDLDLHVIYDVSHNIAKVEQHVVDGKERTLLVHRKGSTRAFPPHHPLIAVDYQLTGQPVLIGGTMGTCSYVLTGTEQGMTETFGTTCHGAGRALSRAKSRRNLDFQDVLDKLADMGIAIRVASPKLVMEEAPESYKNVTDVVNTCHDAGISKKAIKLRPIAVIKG

T4: recombinant Archease D39A
T4 chain: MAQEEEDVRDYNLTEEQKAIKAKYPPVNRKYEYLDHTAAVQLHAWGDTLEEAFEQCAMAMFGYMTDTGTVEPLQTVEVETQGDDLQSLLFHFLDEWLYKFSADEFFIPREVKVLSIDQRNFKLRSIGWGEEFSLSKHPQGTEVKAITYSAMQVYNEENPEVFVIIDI

T5: recombinant Archease K144A
T5 chain: T4 chain with A39D, K144A

T6: recombinant wild-type Archease
T6 chain: T4 chain with A39D

B1: FLAG-tagged Archease (other)
chain: T4 chain with A39D
notes: also called FLAG-Archease; not shown: FLAG tag
B2: FLAG-DDX1 (protein)
chain: T1 sequence (looked up)
B3: CGI-99 (other, human, UniProt Q9Y224 1-244, looked up)
chain: MFRRKLTALDYHNPAGFNCKDETEFRNFIVWLEDQKIRHYKIEDRGNLRNIHSSDWPKFFEKYLRDVNCPFKIQDRQEAIDWLLGLAVRLEYGDNAEKYKDLVPDNSKTADNATKNAEPLINLDVNNPDFKAGVMALANLLQIQRHDDYLVMLKAIRILVQERLTQDAVAKANQTKEGLPVALDKHILGFDTGDAVLNEAAQILRLLHIEELRELQTKINEAIVAVQAIIADPKTDHRLGKVGR
notes: Endogenous protein that co-purifies from cell extract
B4: Archease (other)
chain: AQEEEDVRDYNLTEEQKAIKAKYPPVNRKYEYLDHTADVQLHAWGDTLEEAFEQCAMAMFGYMTDTGTVEPLQTVEVETQGDDLQSLLFHFLDEWLYKFSADEFFIPREVKVLSIDQRNFKLRSIGWGEEFSLSKHPQGTEVKAITYSAMQVYNEENPEVFVIIDI
notes: Endogenous untagged Archease in the cells from which FLAG-HSPC117 was purified
B5: FLAG-tagged HSPC117 (enzyme, human, UniProt Q9Y3I0 1-505, looked up)
chain: T3 chain
notes: also called FLAG-HSPC117; FLAG-RTCB; not shown: FLAG tag

How the values were obtained:
[1] = target: T1, DDX1; assay: FLAG affinity purification at 150 mM NaCl, Coomassie stained gel (FIG. 4A)
Method: (§1) A) Coomassie Blue stained preparations of FLAG-tagged Archease and HSPC117 affinity purified at 150 mM NaCl. B) RNA ligase activity assay of FLAG-HSPC117 and FLAG-Archease using pre-cleaved tRNA substrates. Extracts of HEK 293 cells were used as a negative control. * Indicates unspecific products.
(§2) Stable cell lines expressing a FLAG-tagged version of Archease and HSPC117 were generated to perform immuno-precipitations. Fluted FLAG-Archease was assayed for tRNA ligation in parallel with FLAG-HSPC117, which contains the entire tRNA ligase complex. […] RNA ligase activity was only detectable in reactions containing affinity-purified RNA ligase complex but not FLAG-tagged Archease (FIG. 4B).

[2] = target: T2, ASW; assay: as above
Method: as §1, §2

[3] = target: B3; assay: as above
Method: as §1, §2

[4] = target: T3, HSPC117, Q9Y3I0
[5] = target: B5; assay: FLAG affinity purification, co-purifying proteins on a gel (FIG. 1A)
[6] = target: B5; assay: FLAG affinity purification at 150 mM NaCl, Coomassie stained gel (FIG. 4A)
Method: as §1, §2

[7] = target: T4, recombinant Archease D39A
[8] = target: T5, recombinant Archease K144A
[9] = target: T6, recombinant wild-type Archease
[10] = target: T1, DDX1; assay: FLAG affinity purification, co-purifying proteins on a gel (FIG. 1A)

Binder: B1
- binding result [1]: no binding
- binding result [2]: no binding
- binding result [3]: no binding

Binder: B2
- Xbp1 ligation assay using FLAG-IPs [4]: ligation activity in FLAG-HSPC117 and FLAG-DDX1 IPs were observed

Binder: B3
- binding result [5]: binds

Binder: B4
- binding result [6]: no binding

Binder: B5
- ligation of Xbp1 RNA minimal substrates [7]: Addition of recombinant wild-type Archease but not its mutagenized versions strongly stimulated ligation of Xbp1 RNA minimal substrates
- ligation of Xbp1 RNA minimal substrates [8]: Addition of recombinant wild-type Archease but not its mutagenized versions strongly stimulated ligation of Xbp1 RNA minimal substrates
- ligation activity of affinity purified human tRNA ligase complex (pre-cleaved tRNA substrates, linear intron) [9]: addition of recombinant Archease boosts ligation activity to a great extent (including circularization of the intron)
- ligation of Xbp1 RNA minimal substrates [9]: Addition of recombinant wild-type Archease but not its mutagenized versions strongly stimulated ligation of Xbp1 RNA minimal substrates
- binding result [10]: binds
